Test results taken from the supplement of paper PMC9112550, “Optimization of the antimicrobial peptide Bac7 by deep mutational scanning” (BMC Biology, 2022).

Test system: Escherichia coli TOP10
Assay: shrunken log2 fold change of peptide-encoding DNA abundance (4.5 h post-induction vs induction); higher = less antimicrobial activity (less host growth inhibition)
Conditions: time post-induction: 4.5 h; library: site-saturation at positions 5, 18, 19, 20
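Note: peptides expressed intracellularly from a pBAD plasmid library in pooled LB shake-flask culture, induced with 0.3% L-arabinose, DNA abundance read by NGS, three biological replicates, DESeq2 with apeglm shrinkage.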

| Sequence | shrunken log2 fold change |
| --- | --- |
| RRIRIRPPRLPRPRPRPEPKPRP | 0.475 |
| RRIRERPPRLPRPRPRPNTAPRP | 0.0197 |
| RRIRLRPPRLPRPRPRPDNNPRP | -0.444 |
| RRIRQRPPRLPRPRPRPYKCPRP | -0.334 |
| RRIRLRPPRLPRPRPRPFHYPRP | -0.211 |
| RRIRKRPPRLPRPRPRPNLAPRP | 0.25 |
| RRIRTRPPRLPRPRPRPKYVPRP | 0.0339 |
| RRIRPRPPRLPRPRPRPRTGPRP | 1.03 |
| RRIRCRPPRLPRPRPRPQFFPRP | -0.433 |
| RRIRYRPPRLPRPRPRPENDPRP | -0.342 |
| RRIRPRPPRLPRPRPRPKSMPRP | -0.37 |
| RRIRARPPRLPRPRPRPKCYPRP | 0.00925 |
| RRIRMRPPRLPRPRPRPLFWPRP | 0.554 |
| RRIRERPPRLPRPRPRPFFQPRP | -0.173 |
| RRIRTRPPRLPRPRPRPDGFPRP | -0.0487 |
| RRIRVRPPRLPRPRPRPRCVPRP | 0.0659 |
| RRIRCRPPRLPRPRPRPSIHPRP | -0.929 |
| RRIRNRPPRLPRPRPRPHIWPRP | -0.0306 |
| RRIRFRPPRLPRPRPRPGVHPRP | -0.0827 |
| RRIRFRPPRLPRPRPRPVFMPRP | -0.0805 |
| RRIRTRPPRLPRPRPRPQLRPRP | -0.12 |
| RRIRRRPPRLPRPRPRPYDGPRP | -0.101 |

| Sequence | shrunken log2 fold change |
| --- | --- |
| RRIRIRPPRLPRPRPRPTKNPRP | -0.355 |
| RRIRDRPPRLPRPRPRPIRWPRP | 0.13 |
| RRIRYRPPRLPRPRPRPCVSPRP | -0.0134 |
| RRIRIRPPRLPRPRPRPSWRPRP | 0.144 |
| RRIRKRPPRLPRPRPRPNHLPRP | -0.0502 |
| RRIRWRPPRLPRPRPRPLYFPRP | -0.613 |
| RRIRIRPPRLPRPRPRPCSYPRP | -0.176 |
| RRIRDRPPRLPRPRPRPMIYPRP | -0.0383 |
| RRIRYRPPRLPRPRPRPAAYPRP | -0.387 |
| RRIRERPPRLPRPRPRPIFAPRP | 0.21 |
| RRIRTRPPRLPRPRPRPGSSPRP | -0.209 |
| RRIRIRPPRLPRPRPRPATCPRP | -0.349 |
| RRIRVRPPRLPRPRPRPGDDPRP | 0.364 |
| RRIRDRPPRLPRPRPRPCPQPRP | -0.132 |
| RRIRLRPPRLPRPRPRPVSIPRP | -0.321 |
| RRIRHRPPRLPRPRPRPIDSPRP | -0.0116 |
| RRIRGRPPRLPRPRPRPPEDPRP | 1.21 |
| RRIRARPPRLPRPRPRPPANPRP | 3.4 |
| RRIRQRPPRLPRPRPRPTAQPRP | 0.0588 |
| RRIRQRPPRLPRPRPRPRLTPRP | 0.178 |
| RRIRDRPPRLPRPRPRPFKNPRP | 0.11 |
| RRIRARPPRLPRPRPRPPTFPRP | 0.158 |

| Sequence | shrunken log2 fold change |
| --- | --- |
| RRIRARPPRLPRPRPRPMTGPRP | 0.0159 |
| RRIRVRPPRLPRPRPRPWIVPRP | -0.266 |
| RRIRNRPPRLPRPRPRPPNNPRP | -0.598 |
| RRIRTRPPRLPRPRPRPDQGPRP | 0.23 |
| RRIRYRPPRLPRPRPRPNCSPRP | -0.973 |
| RRIRSRPPRLPRPRPRPAHGPRP | 0.153 |
| RRIRLRPPRLPRPRPRPLMQPRP | -0.0571 |
| RRIRQRPPRLPRPRPRPRPTPRP | 0.554 |
| RRIRWRPPRLPRPRPRPRFCPRP | 0.234 |
| RRIRIRPPRLPRPRPRPQYCPRP | -0.15 |
| RRIRIRPPRLPRPRPRPKQMPRP | -0.166 |
| RRIRLRPPRLPRPRPRPMKGPRP | 0.0527 |
| RRIRKRPPRLPRPRPRPMHPPRP | 0.19 |
| RRIRGRPPRLPRPRPRPRTVPRP | 0.448 |
| RRIRYRPPRLPRPRPRPNHRPRP | -0.767 |
| RRIRQRPPRLPRPRPRPDLPPRP | -0.134 |
| RRIRRRPPRLPRPRPRPFMSPRP | -0.327 |
| RRIRIRPPRLPRPRPRPWPHPRP | -0.394 |
| RRIRSRPPRLPRPRPRPQGWPRP | 0.469 |
| RRIRLRPPRLPRPRPRPANFPRP | 0.0302 |
| RRIRKRPPRLPRPRPRPEDYPRP | 1.15 |
| RRIRDRPPRLPRPRPRPMPIPRP | 0.000679 |

| Sequence | shrunken log2 fold change |
| --- | --- |
| RRIRKRPPRLPRPRPRPILTPRP | -0.149 |
| RRIRIRPPRLPRPRPRPQSCPRP | -0.0388 |
| RRIRERPPRLPRPRPRPQERPRP | 0.061 |
| RRIRERPPRLPRPRPRPLDKPRP | -0.114 |
| RRIRTRPPRLPRPRPRPYMIPRP | -0.478 |
| RRIRVRPPRLPRPRPRPLNDPRP | 0.171 |
| RRIRARPPRLPRPRPRPGGQPRP | 0.262 |
| RRIRRRPPRLPRPRPRPSHRPRP | -0.00626 |
| RRIRCRPPRLPRPRPRPGQGPRP | 0.43 |
| RRIRPRPPRLPRPRPRPLMWPRP | 0.432 |
| RRIRFRPPRLPRPRPRPARCPRP | 0.44 |
| RRIRQRPPRLPRPRPRPFHLPRP | -0.0558 |
| RRIRYRPPRLPRPRPRPFGRPRP | -0.0018 |
| RRIRQRPPRLPRPRPRPKTIPRP | -0.184 |
| RRIRRRPPRLPRPRPRPTDRPRP | 0.194 |
| RRIRARPPRLPRPRPRPKTDPRP | 0.876 |
| RRIRWRPPRLPRPRPRPWLCPRP | -0.0206 |
| RRIRYRPPRLPRPRPRPAWAPRP | 0.253 |
| RRIRSRPPRLPRPRPRPLTVPRP | -0.216 |
| RRIRYRPPRLPRPRPRPYNSPRP | -0.102 |
| RRIRCRPPRLPRPRPRPNKGPRP | -0.302 |
| RRIRQRPPRLPRPRPRPIITPRP | -1.01 |

| Sequence | shrunken log2 fold change |
| --- | --- |
| RRIRMRPPRLPRPRPRPGADPRP | 2.39 |
| RRIRERPPRLPRPRPRPKRMPRP | -0.0497 |
| RRIRTRPPRLPRPRPRPICAPRP | 0.0827 |
| RRIRHRPPRLPRPRPRPPTLPRP | 0.246 |
| RRIRPRPPRLPRPRPRPCLFPRP | -0.357 |
| RRIRFRPPRLPRPRPRPNLCPRP | 0.00999 |
| RRIRNRPPRLPRPRPRPLTSPRP | -0.0977 |
| RRIRRRPPRLPRPRPRPVYSPRP | -0.139 |
| RRIRVRPPRLPRPRPRPCICPRP | -0.338 |
| RRIRVRPPRLPRPRPRPAPNPRP | 0.334 |
| RRIRRRPPRLPRPRPRPKQPPRP | 0.0672 |
| RRIRHRPPRLPRPRPRPSKDPRP | -0.293 |
| RRIRPRPPRLPRPRPRPFVWPRP | -0.0428 |
| RRIRLRPPRLPRPRPRPNDPPRP | -0.213 |
| RRIRVRPPRLPRPRPRPQDLPRP | -0.0193 |
| RRIRHRPPRLPRPRPRPKIEPRP | 0.0371 |
| RRIRTRPPRLPRPRPRPWWYPRP | -0.308 |
| RRIRIRPPRLPRPRPRPWQCPRP | 0.034 |
| RRIRLRPPRLPRPRPRPGVPPRP | 0.0447 |
| RRIRRRPPRLPRPRPRPFQHPRP | -0.248 |
| RRIRPRPPRLPRPRPRPQRYPRP | -0.0398 |
